Test results as given in a protein production outcome set (Wang et al. 2014).

Test: label from the status in PepcDB records

Sequence	protein production
MSLVNSLTHYEILRIPSDATQDEIKKAYRNRLLNTHPDKLSKSIHDTVSNVTINKIQDAYKILSNIKTRREYDRLILENYK	not failed
EEGLEIATLKRIVADMHAAAETAGVHIVTGDTKVVPKGTCDKLYITTAGVGIIPEGRTSADPQIGDAIIVSGPIADHGMAVMMARGDLAISAPIESDTRSVNGQIEALYAAGVTPRWMRDATRGGLATVMNELARATGLGVALNDPLPVRDMTRAACDMLGIDPMYVANEGTFVAIVPADQVDTALATIPEASCIGQIVEQPAASVVLRTGFGGSRMVDMLVGDPLPRIC	failed
MSPFESMEKFPHLLVLDFDGVLCDGLQEYFQTSCQVCRQIWPDLPREKLDRQRDNFYFLRPVIETGWEMPLLLKALATGVEPAAIEAAWPAVAQTLQRQEQIGKSQLAPVLDQVRDNYIHNDLAYWLGLHHFYPGVIGQLNHWLQSPYPQWLYVVTTKEGRFVQQLLKNQKVDFPLGQIIGKEIKQPKFKTLEQLRVKHQCDGDRLWFVEDMLT	failed
MKALHFGAGNIGRGFIGKLLADAGIQLTFADVNQVVLDALNARHSYQVHVVGETEQVDTVSGVNAVSSIGDDVVDLIAQVDLVTTAVGPVVLERIAPAIAKGLVKRKEQGNESPLNIIACENMVRGTTQLKGHVMNALPEDAKAWVEEHVGFVDSAVDRIVPPSASATNDPLEVTVETFSEWIVDKTQFKGALPNIPGMELTDNLMAFVERKLFTLNTGHAITAYLGKLAGHQTIRDAILDEKIRAVVKGAMEESGAVLIKRYGFDADKHAAYIQKILGRFENPYLKDDVERVGRQPLRKLSAGDRLIKPLLGTLEYSLPHKNLIQGIAGAMHFRSEDDPQAQELAALIADKGPQAALAQISGLDANSEVVSEAVTAYKAMQ	not failed
SYTEVRELVNFVCRYLFGHIPRRPVGIFGAELGNYLVSHFSSTWDVHHPKNGEMKRMINTTTSLCFASSAEEAGVPPSDVLRLLPTNMIIFANPGHVFVRLSENGIETPIWIGDVNCDENYQSVPEYVVRTAAIRAEPCSNLGAAGKSVLVGKKPLLTNDKAALEMVNTMYSPLAREKCDDINANLSHLREMYPFRFVYKPSSAQTFSGVEFSQTRFGSSKSRPDLQTMDVIKYLSSQQVSSSSSPSFTYSSINDQMRYSPRF	not failed
MDKNALRKQILQKRMALSTIEKSHLDQKINQKLVAFLTPKPCIKTIALYEPIKNEVTFVDFFFEFLKINQIRAVYPKVISDTEIIFIDQETNTFEPNQIDCFLIPLVGFNKDNYRLGFGKGYYDRYLMQLTRQQPKIGIAYSFQKGDFLADPWDVQLDLIINDE	not failed
MTLNAKGESNQILVDKEVHSTNLLLDIDEKPELFQGLLLSFQHVFAMFGATILVPLILGMPVSVALFASGCGTLIYQVATKFKVPVYLGSSFAYITAMALAMKQMHGDISAAQTGILFVGLIYVVVATVIKFVGNSWVDKILPPIIIGPMIIVIGLGLANSAVTNAGFVAKGDWRKMLVAVVTFLIAAFINTKGKGFIKIIPFLFAIIGGYILSIILGLVDLSPVEKAAWFELPKFYLPFKTGLFHSYKLYFGPEMLAILPISIVTIAENIGDHTVLGQICGRNFLKKPGLNRLLIGDGLATAFSALIGGPAETTYGENTGVIGMTRIASVTVIRNAAFIAIAFSFFGKFTALISTIPSAVLGGMAILLYGVIASNGLKVLIENRVNFAEVRNLIIASSMLVLGLGGAVLDLGALTLSGTALSAIVGIILNLILPKESMKS	not failed
FDASTLYVPEDFLNSCTPGMRKWWQIKSQNFDLVICYKVGKFYELYHMDALIGVSELGLVFMKGNWAHSGFPEIAFGRYSDSLVQKGYKVARVEQTETPEMMEARCRKMAHISKYDRVVRREICRIITKGTQTYSVLEGDPSENYSKYLLSLKEKEEDSSGHTRAYGVCFVDTSLGKFFIGQFSDDRHCSRFRTLVAHYPPVQVLFEKGNLSKETKTILKSSLSCSLQEGLIPGSQFWDASKTLRTLLEEEYFREKLSDGIGVMLPQVLKGMTSESDSIGLTPGEKSELALSALGGCVFYLKKCLIDQELLSMANFEEYIPLDSDTVSTTRSGAIFTKAYQRMVLDAVTLNNLEIFLNGTNGSTEGTLLERVDTCHTPFGKRLLKQWLCAPLCNHYAINDRLDAIEDLMVVPDKISEVV	failed
MILVTGFEPFGSLEHNPSQALLDLLPSEVDGKPLRKAVLPVDAEALGEALEDLHREGPKAVLHLGLAEDRPVLTLERLAVNLLDFPRPDNRGRVLEDLPIVPGGPLALPARFPVKPVLARWREAGIPGRPSLSAGSYLCNQAFYLSLYRLPEEVPVGFLHLPPDETLALKRPRPYVPLEVQARAVRLALEHL	not failed
MFALEELPRIPDFTERAICELFELYASIESVQLPPQSSDATNSSSATAPGNIFSAERGPRYLGPRALVRFFTELGVDMRSLAALAFAWLGRWQYPCHCREEGFARGVRYALWALDRRQHNEPRRWEQVQATCSTLLETSIWPRESTALFERLRSAFPDAVLSYTQRSAEAALDFYLFAFDLNRQSPYRRSLSLTDARYLWKQFLSESCYLATPASPGTPAGVANQPWRYLEHFDAYLESRCGMAGTIISRDTWYWVLMFARETQVAGSSFFANYNQGDAWPVLLDGFVEYLRENKLLSS	not failed
DSGYSRETRALLFRAYRHDPTFAYLFNAEREGYEQRVLATIRQLVKQHFLQNQPALGLFLEDRLVGVALIAPPLRRLGVTESWAWRLRMVMDTGLGCTQRYLAYYNAVLACLPSETVHVLPLIGLDPEFQGQKMGQDLSEQLLAALHDWCAVDENSQGIVVDTGNPRYLEFYKRQGYEEIGEIAVGPV	not failed
MDAREWAMLIALSLLWGGSFFFIGVAVKELPPVTIVTLRVSLAAVALLVVCRIMGLRLPREWAVWRAFFGMGLLNNIIPFCLIVWGQTQIASGLASILNATTPLFTVIVAHFLTADEKMTGNKLAGVLIGFVGVATMIGPAAFGGSSGLWGQIAILGAAISYSFAGIFGRRFKAMGVPPLMTATGQISSSTLMLIPAALLIDKPWTLAMPGLGTWGALIGIALLSTALAYLIFFRILASAGATNLALVTFLIPVSAILLGSLILGEQLEIKHFAGMAMIAAGLAAIDGRLPVKLRSLLRNAPA	failed
MINDIKILGVGGSPRKNGNTDVLLDSFLKGAESAGVETKKVLLRDYSIEPCIGCERCRKTGTCTRFHDGMSLLYPEIEAAKGLTLGSPTYNYNVTALMKAFIDRLYPYYNFTNVRPRRYSSKLAGQGRKAIVFSVCEQLEIEEMGFTLGALGMPLEALGYEIVEKFPVTGYFDRGAVSRDEELLRKTFEAGKKMAEALHLEHHHHHH	failed
FRAAAVRVRVPATSANLGPGFDALGLALGLYDDVVVRVADSGLHIDIAGEGSETLPRDEKHLLVRSLRTAFDLLGGQPRGLEIVCANRIPHGRGLGSSSAAICAGIVAARAVTIGGEARLDDAALLDLATEIEGHPDNVAACLLGGFTLSWMES	failed
MAENVGSDSSEFESISSSQKSYLKNCPFAGHEALPTKSTDSDNTEVLGNQISPAVVKTPILSFSSPTSLDSINDDVFRTPPENASLSSAAESEPRVGVSEIKLQGGSNLTTPFSMAETTLVSSSPSLPAENVRVSESNLKSSSSTAKTTPVSASPSVNARVSESNLNSSSSTTPVSVSPSEKVRVFETTPVSASPSEKVRVFETKCHSDSGDSVPLSSSPPSVAADDVRVPAKHLDSDSSPPTAIGRTMVLVKQRISASDNSASSSASEGTKVSKTENSGEVLPFKEIIEALLRNSGEKLNERDDKVSYVEILKQCGLKFPK	failed
MSTLQTPGATLYSFRRCPYAMRARLALRYAGVPMRIVEVSLKAKPAEMLALSAKGTVPVLALEDRVIDESLEIMHWALAQHDPEDWRLTADPTAQAQMAALIAENDQVFKVHLNRYKYAERYPEAPMEHYRAQGEAFLARLDSLLQQRRYLLAEHPSLADMALLPFVRQFAHVDREWFAQTPYRSLQEWLQERLASELFLAVMAKQ	failed
MRMAATAPAFPELEGRHPCFSTTAEGHARAARLHLPVSPGCNIDCAFCIRDFNRRDQRPGVATRLLTPEQAVAIVARALELCPSINVVGIAGPGDPLATPHALQTFALVRERWPELVLCLSTNGLMLPDRIDEIAGLGISTLTVTVNAVDPQIQAQVTPKIAWQRKRLNGVVAGERLIANQLEGIARAAAHGLTVKVNTVLIPTVNDHHIETIAERVAAAGANLINIIPLIPQHGFAHLKPPGMLMRYAARTAAEKYLRVFTHCQRCRADACGIPGVSDYAQQLYGDDIVAEPTFSHG	failed
MVTGYEALERHRGVRRPRRKLSRREKHAWKKAQKYELKLHKAHEKEERKLAKQAAKQAAREEKAAQKQAKKAERHKKKTKPPGSVKSSGKKGVAKKISSTNKDSRNKGKNITAQQSIPYREMGKDGICRVEDGYYSKTIRFYDINYQLAQNEDKNAIFENWCDFLNYFDSTIHFQLSFINHHSNMTEYEDVIRIKKQNDSFDDLRMEFAQMLRNQLAKGNNGLIRTKYITFGIEADNIREAKPKLERIETDILNNFKVFGVSAYPLNGAERLQIMYETFNQNVKVPFRFSYDDMLRTGLNTKDYIAPSSFLFKNGKDFQMGDTVGAVSYLQILAPELTDKMLAEFLEMDCNLLVNLHIQSIDQMKAIKLVKSKVTDINRMKIEEQKKAVRSGYDMDIIPSDLNTYGGEAKRLLEDLQSRNERMFLVTVVFLNTAKNKQELENVVFQTAGIAQKYNCALKRLDYQQEQGLMSSLPLGRNWIPIKRALTTTSTAIFVPFTTQELFMGGESIYYGLNALSNNLIMADRKKLKNPNGLILGTPGSGKSFAAKREITNVFIVTKDDIIICDPEGEYFPLVRAFNGQVIRISPTSHDYINPMDININYADDDDPLSLKSDFILSLCELVVGGKNGLEPVEKTIIDRCVRLVYQDYLADPVPEKMPILEDLYNLLRKQEEAESQRLATALEIYVNGSLKVFNHRTNVELNNRLVCFDIKDLGKQLKKLGMLIVQDQVWNRVTVNRSAHKSTRYYIDEFHLLLKEEQTAAYSVEIWKRFRKWGGIPTGITQNVKDLLASREIENIFENSDFILMLNQASGDRQILAKQLNISTHQLSYVTNSGEGEGLIFYGNTIIPFKDRFDNTLMLYALMSSKPEDVEKREKLGIKGRDDS	failed
IHNSRWIMTPEVKEDCKMRLFCLPFAGGGALAYRSWCRYMPPEIELCAVQLPGRENRIKDEKFYDINLLIDELVLQILPYLDKPFALYGHSMGGLISFELARRIRKVKGLTPKILFFSGSKAPQLYDHTKDISHLPDELFLKAIKSFNGMPDMFWQDRELIEFKLPTLRADFSVLEGYNYYNEEPLECPISALCGENDKIISKKDMEALALQTKNQFKLRMFDGDHFFINTCRSKVLKSIIEDLN	not failed
MKIEKQVNDLRIIELEKELENNPFIPILYWELGLNYLISVGEEKAEEIWSLGLLQCFTSFDEGLLSLVGFIEQHIELNKNDKQTVLILWQQIIKIVPNYLAGHLNLLVVACELKVFSAEKLAYLGTVALINSIDSGCISQQEEELLLRATLSILEFPTALSLDFLRSSIPLLVNLPWCDAVMAFANSMVYDKQLFSYGVEIAEICLQYSPNNLFILNDLIRFYGLRKDQDALLRTARNLLNIFRQQDFEPDFGFYLSSRLLSAFMTGNDWEQVQSIASIFKDYFILLQNEKSVVLNNFLRDRFWGLGFSLLYLFDEPESNRRCLNFNASIFQQNLTENQNKTICQEENLPKKKQVSLKRIGYIAHTLRQHSVGWLCRWLFKYHDREKFEIFVYLIGQPEDELTENWIYPNVSKYYHFGRDKNEIIKQIKQDQIQILVDLDVLTHNITAQVLAHKPAPVQVSWLGSDASGLPAIDYFIVDPYVVPDDAEGYYREKLWRLPQTYLAVDGFEMGTPTLSREQLGIKPNTVIYLSVQNKIKSNPNILKLQLQILQSVPDSVFLIKGGGDNELIRAMVEQLAKEMGLDLHRIRFLPKDGDEMTHRANLSIADVVLDTYPYNGATTTLETLWMEVPLVTRVGKQFASRNSYTFLTQLNIREGLAWNDQEYVYWGTRFGLEKSLREKVKNELNLGKYKSKLWRAKDFTQELELAYEGMWNGDLD	failed
